Paper PMC4129656

Target: biotinylated E2F-1 peptide symmetrically methylated at R111 and R113
Test: BLI

Kd: 12 µM
Substance: p100-TSN Tudor domain (biolayer interferometry) (from UniProt Q7KZF4 729-787) (domain or fragment)
